Target: the molecule itself
Experiment: Tricine SDS-PAGE, non-reducing against reducing; purified C5-His deglycosylated with glycopeptidase F, 12% gel

B1: N-terminal His-tagged C5 (C5-His) single domain of immunoglobulin new antigen receptor (IgNAR) (domain or fragment)
chain: PKVYLLHPSTDEIDTENSATLMCLATNFHPAEIYVGWMANDTLLDSGYRTQVDSEKGSGSSFVTDRLRLTAAEWNSDTTYSCLVGHPSLNRDLIRSTNKSNGKPSSVNVSVVLSDTVKSCT
stoichiometry N: 2

— PMC7247132 (BMC Proceedings, 2020)
